Experiment [1] addresses T1, rHuman Erythropoietin R/Fc Chimera, CF (R&D Systems Cat#963-ER) (human, UniProt P19235 25-250).
T1 construct: Bought Fc chimera; also called EPO R/Fc; Epo R; Fc part of the bought chimera not given
T1 sequence: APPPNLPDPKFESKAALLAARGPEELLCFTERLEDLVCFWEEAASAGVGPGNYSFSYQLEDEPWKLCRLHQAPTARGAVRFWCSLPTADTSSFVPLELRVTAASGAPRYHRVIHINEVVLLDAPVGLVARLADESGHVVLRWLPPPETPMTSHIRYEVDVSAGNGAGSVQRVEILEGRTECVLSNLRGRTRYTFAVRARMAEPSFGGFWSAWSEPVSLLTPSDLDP
Description: ECL (MSD Multi-Spot) binding assay, antigen spotted on plate; Fab 30 nM; blank spot 213.

The target in experiment [2] is T2, Recombinant Human DLL4 (R&D Systems Cat#1506-D4/CF) (human, UniProt Q9NR61 27-524).
T2 construct: Bought recombinant protein; also called delta-like protein 4; rHuman DLL4
The description is as above.

For experiment [3], the target named is T3, rHuman P-Cadherin/Fc Chimera, CF (R&D Systems Cat#861-PC) (human, UniProt P22223 108-654).
T3 construct: Bought Fc chimera; also called CDH3; Fc part of the bought chimera not given
The experiment is described as above.

Experiment [4] deals with T4, rHuman IGF-1 sR (insulin-like growth factor-1 soluble receptor), CF (R&D Systems Cat#391-GR) (human, UniProt P08069 31-932).
T4 construct: Bought soluble receptor; also called IGF-R1
Description: ECL (MSD multi-spot), antigen on plate, Fab 10 nM.

Experiment [5] concerns the target T5, rHuman P-Cadherin/Fc Chimera, CF (R&D Systems Cat#861-PC) (human, UniProt P22223 108-654).
T5 construct: Bought Fc chimera; also called CDH3; not shown: Fc of the bought chimera
Description: ECL (MSD multi-spot), antigen on plate, Fab 10 nM.

The target in experiment [6] is T6, rHuman Erythropoietin R/Fc Chimera, CF (R&D Systems Cat#963-ER) (human, UniProt P19235 25-250).
T6 construct: Bought Fc chimera; also called EPO R/Fc; Epo R; not shown: Fc of the bought chimera
T6 sequence: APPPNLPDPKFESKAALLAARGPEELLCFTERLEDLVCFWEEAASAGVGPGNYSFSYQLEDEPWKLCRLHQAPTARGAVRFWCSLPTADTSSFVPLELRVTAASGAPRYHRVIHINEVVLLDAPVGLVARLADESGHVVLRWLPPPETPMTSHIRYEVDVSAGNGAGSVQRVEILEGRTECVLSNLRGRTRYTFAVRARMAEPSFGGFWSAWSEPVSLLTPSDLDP
Description: ECL (MSD multi-spot), antigen on plate, Fab 10 nM.

In experiment [7] the target is T7, Recombinant Human DLL4 (R&D Systems Cat#1506-D4/CF) (human, UniProt Q9NR61 27-524).
T7 construct: Bought recombinant protein; also called delta-like protein 4
Description: ECL (MSD multi-spot), antigen on plate, Fab 10 nM.

Experiment [8] deals with T8, rHuman ErbB2/Fc Chimera, CF (R&D Systems Cat#1129-ER) (human, UniProt P04626 23-652).
T8 construct: Bought Fc chimera; also called HER2/neu; not shown: Fc of the bought chimera
Description: ECL (MSD multi-spot), antigen on plate, Fab 10 nM.

Experiment [9] has as its target T9, rHuman EGF R/Fc Chimera, CF (R&D Systems Cat#344-ER) (human, UniProt P00533 25-645).
T9 construct: Bought Fc chimera; also called ErbB-1; not shown: Fc of the bought chimera
Description: ECL (MSD multi-spot), antigen on plate, Fab 10 nM.

Experiment [10] deals with T10, rHuman HGF R/c-MET/Fc Chimera, CF (R&D Systems Cat#358-MT/CF) (human, UniProt P08581 25-932).
T10 construct: Bought Fc chimera; also called HGF R/Fc; not shown: Fc of the bought chimera
Description: ECL (MSD multi-spot), antigen on plate, Fab 10 nM.

Experiment [11] concerns the target T11, rHuman Notch-1/Fc Chimera, CF (R&D Systems Cat#3647-TK) (human, UniProt P46531 19-526).
T11 construct: Bought Fc chimera; not shown: Fc of the bought chimera
Description: ECL (MSD multi-spot), antigen on plate, Fab 10 nM.

Experiment [12] concerns the target T12, rHuman CD44/Fc Chimera, CF (R&D Systems Cat#3660-CD) (human, UniProt P16070 21-220).
T12 construct: Bought Fc chimera; not shown: Fc of the bought chimera
Description: ECL (MSD multi-spot), antigen on plate, Fab 10 nM.

The target of experiment [13] is T13, rHuman IGF-1 sR (IGF-1 sR), CF (R&D Systems Cat#391-GR) (human, UniProt P08069 31-932).
T13 construct: Purchased soluble receptor; also called insulin-like growth factor-1 soluble receptor; IGF-R1
Description: MSD ECL multi-spot plate, antigen immobilized; Fab 8 nM; blank spot 479.

The target in experiment [14] is T14, rHuman P-Cadherin/Fc Chimera, CF (R&D Systems Cat#861-PC) (human, UniProt P22223 108-654).
T14 construct: Purchased Fc chimera; not shown: Fc portion of the purchased chimera
The description is as above.

Experiment [15] deals with T15, rHuman Erythropoietin R/Fc Chimera, CF (R&D Systems Cat#963-ER) (human, UniProt P19235 25-250).
T15 construct: Purchased Fc chimera; also called EPO R/Fc; Epo R; not shown: Fc portion of the purchased chimera
T15 sequence: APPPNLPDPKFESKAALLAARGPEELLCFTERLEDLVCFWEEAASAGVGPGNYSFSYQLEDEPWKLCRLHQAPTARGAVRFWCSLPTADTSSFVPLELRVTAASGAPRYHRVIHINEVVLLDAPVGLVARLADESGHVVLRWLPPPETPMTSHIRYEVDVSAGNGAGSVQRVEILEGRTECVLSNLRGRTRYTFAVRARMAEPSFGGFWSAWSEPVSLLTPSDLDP
The experiment is described as above.

Experiment [16] deals with T16, Recombinant Human DLL4 (R&D Systems Cat#1506-D4/CF) (human, UniProt Q9NR61 27-524).
T16 construct: Purchased recombinant protein; also called delta-like protein 4
The experiment is described as above.

The target of experiment [17] is T17, rHuman EGF R/Fc Chimera, CF (R&D Systems Cat#344-ER) (human, UniProt P00533 25-645).
T17 construct: Purchased Fc chimera; not shown: Fc portion of the purchased chimera
The description is as above.

The target of experiment [18] is T18, rHuman HGF R/c-MET/Fc Chimera, CF (R&D Systems Cat#358-MT/CF) (human, UniProt P08581 25-932).
T18 construct: Purchased Fc chimera; also called HGF R/Fc; not shown: Fc portion of the purchased chimera
Described as above.
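Also: blank spot per well as comparator with Hit at signal to blank ratio of 4 or more.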

B1: Fab VH6-1_IGHD3-3*01_IGHJ4*01 & V4-3_IGLJ4*01 (Fab, V domains shown)
VH: QVQLQQSGPGLVKPSQTLSLTCAISGDSVSSNSAAWNWIRQSPSRGLEWLGRTYYRSKWYNDYAVSVKSRITINPDTSKNQFSLQLNSVTPEDTAVYYCAREYYDFWSGYYTDYFDYWGQGTLVTVSS
VL: QPVLTQPTSLSASPGASARLTCTLRSGINLGSYRIFWYQQKPESPPRYLLSYYSDSSKHQGSGVPSRFSGSKDASSNAGILVISGLQSEDEADYYCMIWHSSASFVFGGGTQLIIL
notes: Tested as a Fab made in E. coli; also called IGHV6-1*01
Turning to B1, the figures for the ECL signal in experiment [1], in [2] and in experiment [3] were 325, 736 and 440, respectively.

B2: Fab VH1-46_IGHD6-6*01_IGHJ1*01_S102A_S103P_S104F & L6_IGKJ1*01_S31K (Fab, V domains shown)
VH: QVQLVQSGAEVKKPGASVKVSCKASGYTFTSYYMHWVRQAPGQGLEWMGIINPSGGSTSYAQKFQGRVTMTRDTSTSTVYMELSSLRSEDTAVYYCAREEYAPFSAEYFQHWGQGTLVTVSS
VL: EIVLTQSPATLSLSPGERATLSCRASQSVSKYLAWYQQKPGQAPRLLIYDASNRATGIPARFSGSGSGTDFTLTISSLEPEDFAVYYCQQRSNWPPWTFGQGTKVEIKR
notes: Fab
For the molecule B2, the ECL signal in experiment [4] was 214 ECL signal; in experiment [5], 240 ECL signal; in experiment [6] it was 392 ECL signal; in [7], 29800 ECL signal; in experiment [8], 303 ECL signal; in experiment [9] it was 297 ECL signal. Further, the ECL signal amounted to 271 ECL signal in [10], 388 ECL signal in experiment [11] and 352 ECL signal in [12].

B3: Fab VH5-51_IGHD5-18*01>3_IGHJ4*01_G100R & V3-4_IGLJ1*01 (Fab, V domains shown)
VH: EVQLVQSGAEVKKPGESLKISCKGSGYSFTSYWIGWVRQMPGKGLEWMGIIYPGDSDTRYSPSFQGQVTISADKSISTAYLQWSSLKASDTAMYYCARRRYSYGYDYFDYWGQGTLVTVSS
VL: QTVVTQEPSFSVSPGGTVTLTCGLSSGSVSTSYYPSWYQQTPGQAPRTLIYSTNTRSSGVPDRFSGSILGNKAALTITGAQADDESDYYCVLYMGSGISYVFGTGTKVTVL
notes: It was expressed as a Fab: CH1 with tags from Plasmid A and lambda CL from Plasmid E; also called Fab No. 23
B3: the ECL signal amounted to 1110 ECL signal in [13]; 669 ECL signal in experiment [14]; 911 ECL signal in experiment [15]; 5470 ECL signal in [16]; 1080 ECL signal in experiment [17]; 1240 ECL signal in experiment [18].

The values above are taken from patent US20120058906A1 (published 2012).
